According to patent US20120141504A1 (MAYO FOUNDATION FOR MEDICAL EDUCATION AND RESEARCH, published 2012):

Target: T1, human B7-H3.1 expressed on 293 cells transfected with pcDNA/B7-H3 (human, UniProt Q5ZPR3 29-534)
T1 sequence: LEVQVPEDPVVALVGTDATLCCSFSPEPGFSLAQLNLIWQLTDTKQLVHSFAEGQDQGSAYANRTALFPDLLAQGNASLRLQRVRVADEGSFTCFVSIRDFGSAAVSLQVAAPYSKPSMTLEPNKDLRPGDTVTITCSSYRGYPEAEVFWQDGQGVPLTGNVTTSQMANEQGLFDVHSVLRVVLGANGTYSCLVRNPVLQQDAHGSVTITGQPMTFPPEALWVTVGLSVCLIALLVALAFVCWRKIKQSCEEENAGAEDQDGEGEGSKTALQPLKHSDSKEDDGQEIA
Assay: flow cytometry on transfected 293 cells
Method: After a 45 min incubation, cells were washed and cultured for 45 min with fluorescein isothiocyanate (FITC)-conjugated goat anti-mouse Ig F(ab′)₂ (BioSource, Camarillo, Calif.). For two color staining, cells were washed and further incubated with phycoerythrin (PE)-conjugated mAb specific for CD3, CD14, or CD19 (PharMingen, San Diego, Calif.). For the analysis of CD3+, CD19+, and CD 14+ cells, peripheral blood mononuclear cells (PBMC) (untreated or activated as described below) were stained with anti-B3-H7 antiserum (green fluorescence) and either anti-CD3, anti-CD19, or anti-CD14 monoclonal antibody (mAb) (orange fluorescence). The proportion of B7-H3 expressing cells (green fluorescence) within the CD3+, the CD19+, and the CD 14+ populations was assessed by gating the flow cytometer on the relevant populations (orange fluorescence). Expression of a B7-H3 counter-receptor was analyzed by incubation of cells with B7-H3Ig (5 μg/sample) with subsequent staining using FITC-conjugated goat anti-mouse Ig F(ab′)₂. Single or double stained cells were analyzed using the Becton Dickinson FACScan (Mountain View, Calif.).

- binding result: no binding (tested: 5 µg/sample)
B1: ICOSIg fusion protein (Fc fusion, UniProt Q9Y6W8 21-140, looked up)
chain: EINGSANYEMFIFHNGGVQILCKYPDIVQQFKMQLLKGGQILCDLTKTKGSGNTVSIKSLKFCHSQLSNNSVSFFLYNLDHSHANYYFCNLSIFDPPPFKVTLTGGYLHIYESQLCCQLK
notes: extracellular domain; Described as an analogous fusion protein prepared by a method similar to that for B7-H3Ig (extracellular domain fused to mouse IgG2a Fc); not shown: Fc constant region of mouse IgG2a
